Assay results from paper PMC3626704 (BMC Biochemistry, 2013).

B1: 16F6 bivalent scFv on phage (scFv, V domains shown)
VH: QVQLVQSGAEVRKPGASVKVSCKASGDTFSSYAISWVRQAPGQGLEWMGGIIPIFGTANYAQAFQGRVTITANESTSTAYMELSSLRSEDTAIYYCARDNPTLLGSDYWGAGTLVTVSS
VL: DIQMTQSPSTLSASIGDRVTITCRASESISSILAWYQQKPGKAPKLLISNASRLASGAPSRFSGSGSGTDFTLTISSLQPDDFATYYCQQRSNYPFTFGGGTKLEIK
B2: 25C5 bivalent scFv on phage (scFv, V domains shown)
VH: QVQLVQSGAEVRKPGASVKVSCKASGDTFSSYAISWVRQAPGQGLEWMGGIIPIFGTANYAQAFQGRVTITANESTSTAYMELSSLRSEDTAIYYCARDNPTLLGSDYWGAGTLVTVSS
VL: DIQMTQSPSTLSASIGDRVTITCRASEDIHDYLAWYQQKPGKAPKLLISRASRLASGAPSRFSGSGSGTDFTLTISSLQPDDFATYYCQQNDSYPYTFGGGTKLEIK
B3: 16D10 bivalent scFv on phage (scFv, V domains shown)
VH: QVQLVQSGAEVRKPGASVKVSCKASGDTFSSYAISWVRQAPGQGLEWMGGIIPIFGTANYAQAFQGRVTITANESTSTAYMELSSLRSEDTAIYYCARDNPTLLGSDYWGAGTLVTVSS
VL: DIQMTQSPSTLSASIGDRVTITCRASENIRGSLAWYQQKPGKAPKLLIYRASRLASGAPSRFSGSGSGTDFTLTISSLQPDDFATYYCQQHSDYPHTFGGGTKLEIK
B4: 16G6 bivalent scFv on phage (scFv, V domains shown)
VH: QVQLVQSGAEVRKPGASVKVSCKASGDTFSSYAISWVRQAPGQGLEWMGGIIPIFGTANYAQAFQGRVTITANESTSTAYMELSSLRSEDTAIYYCARDNPTLLGSDYWGAGTLVTVSS
VL: DIQMTQSPSTLSASIGDRVTITCRASEGIRRSLAWYQQKPGKAPKLLISNASHLASGAPSRFSGSGSGTDFTLTISSLQPDDFATYYCQQYYNYPRTFGGGTKLEIK
B5: 16B7 bivalent scFv on phage (scFv, V domains shown)
VH: QVQLVQSGAEVRKPGASVKVSCKASGDTFSSYAISWVRQAPGQGLEWMGGIIPIFGTANYAQAFQGRVTITANESTSTAYMELSSLRSEDTAIYYCARDNPTLLGSDYWGAGTLVTVSS
VL: DIQMTQSPSTLSASIGDRVTITCRASENILRLLAWYQQKPGKAPKLLIYYASSLASGAPSRFSGSGSGTDFTLTISSLQPDDFATYYCQQRADYPYTFGGGTKLEIK
B6: 16E12 bivalent scFv on phage (scFv, V domains shown)
VH: QVQLVQSGAEVRKPGASVKVSCKASGDTFSSYAISWVRQAPGQGLEWMGGIIPIFGTANYAQAFQGRVTITANESTSTAYMELSSLRSEDTAIYYCARDNPTLLGSDYWGAGTLVTVSS
VL: DIQMTQSPSTLSASIGDRVTITCRASEGIRRSLAWYQQKPGKAPKLLISNASHLASGAPSRFSGSGSGTDFTLTISSLQPDDFATYYCQQYYNYPRTFGGGTKLEIK
B7: 25F12 bivalent scFv on phage (scFv, V domains shown)
VH: QVQLVQSGAEVRKPGASVKVSCKASGDTFSSYAISWVRQAPGQGLEWMGGIIPIFGTANYAQAFQGRVTITANESTSTAYMELSSLRSEDTAIYYCARDNPTLLGSDYWGAGTLVTVSS
VL: DIQMTQSPSTLSASIGDRVTITCRASEGIIGHLAWYQQKPGKAPKLLIYNASRLASGAPSRFSGSGSGTDFTLTISSLQPDDFATYYCQQRDDYPLTFGGGTKLEIK
B8: 25B4 bivalent scFv on phage (scFv, V domains shown)
VH: QVQLVQSGAEVRKPGASVKVSCKASGDTFSSYAISWVRQAPGQGLEWMGGIIPIFGTANYAQAFQGRVTITANESTSTAYMELSSLRSEDTAIYYCARDNPTLLGSDYWGAGTLVTVSS
VL: DIQMTQSPSTLSASIGDRVTITCRASEGIRNGLAWYQQKPGKAPKLLISRASHLASGAPSRFSGSGSGTDFTLTISSLQPDDFATYYCQQYYAYPHTFGGGTKLEIK
B9: 16E8 bivalent scFv on phage (scFv, V domains shown)
VH: QVQLVQSGAEVRKPGASVKVSCKASGDTFSSYAISWVRQAPGQGLEWMGGIIPIFGTANYAQAFQGRVTITANESTSTAYMELSSLRSEDTAIYYCARDNPTLLGSDYWGAGTLVTVSS
VL: DIQMTQSPSTLSASIGDRVTITCRASESIYGSLAWYQQKPGKAPKLLISHASHLASGAPSRFSGSGSGTDFTLTISSLQPDDFATYYCQQNDTYPHTFGGGTKLEIK
B10: 25E1 bivalent scFv on phage (scFv, V domains shown)
VH: QVQLVQSGAEVRKPGASVKVSCKASGDTFSSYAISWVRQAPGQGLEWMGGIIPIFGTANYAQAFQGRVTITANESTSTAYMELSSLRSEDTAIYYCARDNPTLLGSDYWGAGTLVTVSS
VL: DIQMTQSPSTLSASIGDRVTITCRASEDIGGSLAWYQQKPGKAPKLLISHAYSLASGAPSRFSGSGSGTDFTLTISSLQPDDFATYYCQQHATYPHTFGGGTKLEIK
B11: 25A6 bivalent scFv on phage (scFv, V domains shown)
VH: QVQLVQSGAEVRKPGASVKVSCKASGDTFSSYAISWVRQAPGQGLEWMGGIIPIFGTANYAQAFQGRVTITANESTSTAYMELSSLRSEDTAIYYCARDNPTLLGSDYWGAGTLVTVSS
VL: DIQMTQSPSTLSASIGDRVTITCRASEGIYDGLAWYQQKPGKAPKLLISRAYYLASGAPSRFSGSGSGTDFTLTISSLQPDDFATYYCQQRANYPHTFGGGTKLEIK
B12: 16E3 bivalent scFv on phage (scFv, V domains shown)
VH: QVQLVQSGAEVRKPGASVKVSCKASGDTFSSYAISWVRQAPGQGLEWMGGIIPIFGTANYAQAFQGRVTITANESTSTAYMELSSLRSEDTAIYYCARDNPTLLGSDYWGAGTLVTVSS
VL: DIQMTQSPSTLSASIGDRVTITCRASEGIRYGLAWYQQKPGKAPKLLISRASRLASGAPSRFSGSGSGTDFTLTISSLQPDDFATYYCQQHYAYPHTFGGGTKLEIK
B13: 2H10 bivalent scFv on phage (scFv, V domains shown)
VH: QVQLVQSGAEVRKPGASVKVSCKASGDTFSSYAISWVRQAPGQGLEWMGGIIPIFGTANYAQAFQGRVTITANESTSTAYMELSSLRSEDTAIYYCARDNPTLLGSDYWGAGTLVTVSS
VL: DIQMTQSPSTLSASIGDRVTITCRASEDIYRSLAWYQQKPGKAPKLLISRASRLASGAPSRFSGSGSGTDFTLTISSLQPDDFATYYCQQYSNYPLTFGGGTKLEIK
B14: 25C4 bivalent scFv on phage (scFv, V domains shown)
VH: QVQLVQSGAEVRKPGASVKVSCKASGDTFSSYAISWVRQAPGQGLEWMGGIIPIFGTANYAQAFQGRVTITANESTSTAYMELSSLRSEDTAIYYCARDNPTLLGSDYWGAGTLVTVSS
VL: DIQMTQSPSTLSASIGDRVTITCRASESILGSLAWYQQKPGKAPKLLIYRASHLASGAPSRFSGSGSGTDFTLTISSLQPDDFATYYCQQYSNYPLTFGGGTKLEIK
B15: 16F5 bivalent scFv on phage (scFv, V domains shown)
VH: QVQLVQSGAEVRKPGASVKVSCKASGDTFSSYAISWVRQAPGQGLEWMGGIIPIFGTANYAQAFQGRVTITANESTSTAYMELSSLRSEDTAIYYCARDNPTLLGSDYWGAGTLVTVSS
VL: DIQMTQSPSTLSASIGDRVTITCRASENINDHLAWYQQKPGKAPKLLISRAYRLASGAPSRFSGSGSGTDFTLTISSLQPDDFATYYCQQYADTPFTFGGGTKLEIK
B16: 25B8 bivalent scFv on phage (scFv, V domains shown)
VH: QVQLVQSGAEVRKPGASVKVSCKASGDTFSSYAISWVRQAPGQGLEWMGGIIPIFGTANYAQAFQGRVTITANESTSTAYMELSSLRSEDTAIYYCARDNPTLLGSDYWGAGTLVTVSS
VL: DIQMTQSPSTLSASIGDRVTITCRASENINRNLAWYQQKPGKAPKLLISRASRLASGAPSRFSGSGSGTDFTLTISSLQPDDFATYYCQQRYNYPYTFGGGTKLEIK
B17: 25A5 bivalent scFv on phage (scFv, V domains shown)
VH: QVQLVQSGAEVRKPGASVKVSCKASGDTFSSYAISWVRQAPGQGLEWMGGIIPIFGTANYAQAFQGRVTITANESTSTAYMELSSLRSEDTAIYYCARDNPTLLGSDYWGAGTLVTVSS
VL: DIQMTQSPSTLSASIGDRVTITCRASESIRSHLAWYQQKPGKAPKLLISRASRLASGAPSRFSGSGSGTDFTLTISSLQPDDFATYYCQQSSDYPHTFGGGTKLEIK
B18: D5 bivalent scFv (biv-scFv) displayed on M13 phage (scFv, V domains shown)
VH: QVQLVQSGAEVRKPGASVKVSCKASGDTFSSYAISWVRQAPGQGLEWMGGIIPIFGTANYAQAFQGRVTITANESTSTAYMELSSLRSEDTAIYYCARDNPTLLGSDYWGAGTLVTVSS
VL: DIQMTQSPSTLSASIGDRVTITCRASEGIYHWLAWYQQKPGKAPKLLIYKASSLASGAPSRFSGSGSGTDFTLTISSLQPDDFATYYCQQYSNYPLTFGGGTKLEIK

The binders below were run against T1, 5-Helix (HIV-1 group M subtype B, HXB2 (gp41 …, stabilised)) (assay: ELISA). Settings: one partner purified.
T1 construct: also called designed protein based on HIV-1 gp41
With B1 the “F_competitive (signal with 40 nM free 5-Helix / signal without)” value was 0.8 fraction and the “phage ELISA signal OD450” value was 3 OD450. With B2 the “F_competitive (signal with 40 nM free 5-Helix / signal without)” value was 0.5 fraction and the “phage ELISA signal OD450” value was 0.7 OD450. In the case of B3, the “F_competitive (signal with 40 nM free 5-Helix / signal without)” value is reported as 0.7 fraction and the “phage ELISA signal OD450” value is reported as 3 OD450. B4 was tested, and the “F_competitive (signal with 40 nM free 5-Helix / signal without)” value was 0.3 fraction and the “phage ELISA signal OD450” value was 2.3 OD450. B5 was tested, and the “F_competitive (signal with 40 nM free 5-Helix / signal without)” value was 0.6 fraction and the “phage ELISA signal OD450” value was 3 OD450. In the case of B6, the “F_competitive (signal with 40 nM free 5-Helix / signal without)” value is reported as 0.1 fraction and the “phage ELISA signal OD450” value is reported as 3.1 OD450. With B7 the “F_competitive (signal with 40 nM free 5-Helix / signal without)” value was 0.2 fraction and the “phage ELISA signal OD450” value was 2.7 OD450. B8 was tested, and the “F_competitive (signal with 40 nM free 5-Helix / signal without)” value was 0.1 fraction and the “phage ELISA signal OD450” value was 2.9 OD450. With B9 the “F_competitive (signal with 40 nM free 5-Helix / signal without)” value was 0.4 fraction and the “phage ELISA signal OD450” value was 3 OD450. In the case of B10, the “F_competitive (signal with 40 nM free 5-Helix / signal without)” value is reported as 0.1 fraction and the “phage ELISA signal OD450” value is reported as 3 OD450. For B11, the “F_competitive (signal with 40 nM free 5-Helix / signal without)” value was 0.1 fraction and the “phage ELISA signal OD450” value was 3.1 OD450. With B12 the “F_competitive (signal with 40 nM free 5-Helix / signal without)” value was 0.7 fraction and the “phage ELISA signal OD450” value was 3 OD450. B13 was tested, and the “F_competitive (signal with 40 nM free 5-Helix / signal without)” value was 0.1 fraction and the “phage ELISA signal OD450” value was 1.9 OD450. With B14 the “F_competitive (signal with 40 nM free 5-Helix / signal without)” value was 0.1 fraction and the “phage ELISA signal OD450” value was 2.5 OD450. For B15, the “F_competitive (signal with 40 nM free 5-Helix / signal without)” value was 0.2 fraction and the “phage ELISA signal OD450” value was 3 OD450. In the case of B16, the “F_competitive (signal with 40 nM free 5-Helix / signal without)” value is reported as 0.2 fraction and the “phage ELISA signal OD450” value is reported as 2.9 OD450. With B17 the “F_competitive (signal with 40 nM free 5-Helix / signal without)” value was 0.1 fraction and the “phage ELISA signal OD450” value was 3.5 OD450.

Molecular target: T2, 6-Helix-Fd (HIV-1 gp41 (HXB2-like, printed sequence), stabilised)
T2 construct: also called post-fusion six-helix bundle mimic
T2 chain: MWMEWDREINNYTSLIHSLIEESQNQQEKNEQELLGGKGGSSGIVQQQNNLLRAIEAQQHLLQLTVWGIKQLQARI
Test: ELISA; competitive phage ELISA, on-phage bivalent scFv: binding to immobilised 5-Helix inhibited by free 5-Helix or free 6-Helix-Fd (concentrations for the trimer); apparent
Settings: one partner purified
B18 gave an IC50 of 11 nM. Work on B16 yielded an IC50 of ~100 nM.

The binders below were run against T1, 5-Helix in the same assay as above. Settings: one partner purified.
Binder B18 has an IC50 of 0.1 nM. For B16, the IC50 was 3.1 nM.
